In patent US20250171562A1 (ALK ABELL, published 2025):

Target: T1, recombinant human IgE (human, UniProt P01854-1 1-428)
T1 construct: made in-house (ALK); preloaded on immobilised FcεRIα in the displacement ELISA
Test: IgE-FcεRIα displacement ELISA
Description: The displacement effect was tested using IgE-FcεRIα displacement ELISA assay. Maxisorp® microtiter plates (Thermo Scientific Nunc, Roskilde, Denmark) were coated with 100 μl streptavidin, 5 μg/ml (Thermo Scientific, Waltham, MA) for 18 h at 4° C. followed by wash with 300 μl washing buffer (PBS containing 0.05% Tween 20) using an AquaMax® 2000 plate washer (Molecular Devices, San Jose, CA). Remaining binding sites were blocked with 250 μl blocking buffer (PBS containing 2% BSA) for 2 h and washed with 300 μl washing buffer. Subsequently, the bound streptavidin was loaded with 100 μl (0.1 μg/ml) recombinant human FcεRIα (site specific biotinylated via avi-tag, made in-house, ALK, Hørsholm, Denmark) for 1 h and plates washed twice with 300 μl washing buffer. The bound receptor was then loaded with 100 μl recombinant human IgE (made in-house, ALK, Hørsholm, Denmark), 13 ng/ml (pre-titrated to reach an OD₄₅₀ signal in the range of 1.5-2.5 in the absence of displacement components) for 1h followed by three washes of 300 μl washing buffer.
displacement step: 100 μl sdAbs diluted in concentration series (pM-μM range) or blocking buffer only as a non-displacement negative control, were added to the ELISA wells and incubated for 1 h. Any IgE, displaced from the receptor by a sdAb was washed away by three washes of 300 μl washing buffer.
The ability of the various sdAbs to displace IgE from the receptor (FcεRIα) was evaluated by use of the ELISA based IgE-FcεRIα displacement assay. The percent displacement effect was calculated as the relative reduction in signal compared to the control with no sdAb added. The EC₅₀ values and the maximal effects were determined (table 15).

T1 sequence (P01854 other isoform, or with tags, fused parts or gaps): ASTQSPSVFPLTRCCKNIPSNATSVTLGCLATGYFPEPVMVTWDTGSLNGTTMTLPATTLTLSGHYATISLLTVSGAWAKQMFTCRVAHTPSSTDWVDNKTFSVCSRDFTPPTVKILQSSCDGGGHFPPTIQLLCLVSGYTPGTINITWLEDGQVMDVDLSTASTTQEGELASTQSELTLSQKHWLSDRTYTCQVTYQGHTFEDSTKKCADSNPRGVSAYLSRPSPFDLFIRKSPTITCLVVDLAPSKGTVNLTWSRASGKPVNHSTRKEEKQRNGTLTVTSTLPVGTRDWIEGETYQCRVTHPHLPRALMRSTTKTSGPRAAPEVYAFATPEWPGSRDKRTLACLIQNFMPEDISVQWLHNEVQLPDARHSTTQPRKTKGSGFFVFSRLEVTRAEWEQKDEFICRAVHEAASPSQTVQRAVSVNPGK

B1: CIgG4B1A1(G4S)2 (Fc fusion)
chain 1: GPPCPPCPAPEFLGGPSVFLFPPKPKDTLMISRTPEVTCVVVDVSQEDPEVQFNWYVDGVEVHNAKTKPREEQFNSTYRVVSVLTVLHQDWLNGKEYKCKVSNKGLPSSIEKTISKAKGQPREPQVYTLPPCQEEMTKNQVSLWCLVKGFYPSDIAVEWESNGQPENNYKTTPPVLDSDGSFFLYSRLTVDKSRWQEGNVFSCSVMHEALHNHYTQKSLSLSLGKGGGGSGGGGSQVQLQESGGGLVQTGGSLRLSCAVHGRTFSNTGMGWFRQAPGNERQFVAIISPSGTSTYYADSVKGRFTISRDPAKNTVYLQMNSLKMDDTAVYYCAASYGSNWSTLRHQRRNEYDAWGQGTQVAVS
chain 2: GPPCPPCPAPEFLGGPSVFLFPPKPKDTLMISRTPEVTCVVVDVSQEDPEVQFNWYVDGVEVHNAKTKPREEQFNSTYRVVSVLTVLHQDWLNGKEYKCKVSNKGLPSSIEKTISKAKGQPREPQVCTLPPSQEEMTKNQVSLSCAVKGFYPSDIAVEWESNGQPENNYKTTPPVLDSDGSFFLVSRLTVDKSRWQEGNVFSCSVMHEALHNHYTQKSLSLSLGKGGGGSGGGGSEVQLLESGGGLVQPGGSLRLSCAASGFTFGNYDMAWVRQAPGKRPEWVSSIDTGGDITHYADSVKGRFTISRDNAKNTLYLQMNSLRPEDTAVYWCATDEEYALGPNEFDYYGQGTLVTVSS
An EC50 of 4 nM and a Max effect of over 95% were found for B1 in this work.

B2: NIgG4B1A1(G4S)2 (Fc fusion)
chain 1: QVQLQESGGGLVQTGGSLRLSCAVHGRTFSNTGMGWFRQAPGNERQFVAIISPSGTSTYYADSVKGRFTISRDPAKNTVYLQMNSLKMDDTAVYYCAASYGSNWSTLRHQRRNEYDAWGQGTQVAVSGGGGSGGGGSGPPCPPCPAPEFLGGPSVFLFPPKPKDTLMISRTPEVTCVVVDVSQEDPEVQFNWYVDGVEVHNAKTKPREEQFNSTYRVVSVLTVLHQDWLNGKEYKCKVSNKGLPSSIEKTISKAKGQPREPQVYTLPPCQEEMTKNQVSLWCLVKGFYPSDIAVEWESNGQPENNYKTTPPVLDSDGSFFLYSRLTVDKSRWQEGNVFSCSVMHEALHNHYTQKSLSLSLGK
chain 2: EVQLLESGGGLVQPGGSLRLSCAASGFTFGNYDMAWVRQAPGKRPEWVSSIDTGGDITHYADSVKGRFTISRDNAKNTLYLQMNSLRPEDTAVYWCATDEEYALGPNEFDYYGQGTLVTVSSGGGGSGGGGSGPPCPPCPAPEFLGGPSVFLFPPKPKDTLMISRTPEVTCVVVDVSQEDPEVQFNWYVDGVEVHNAKTKPREEQFNSTYRVVSVLTVLHQDWLNGKEYKCKVSNKGLPSSIEKTISKAKGQPREPQVCTLPPSQEEMTKNQVSLSCAVKGFYPSDIAVEWESNGQPENNYKTTPPVLDSDGSFFLVSRLTVDKSRWQEGNVFSCSVMHEALHNHYTQKSLSLSLGK
An EC50 of 1.4 nM and a Max effect of over 95% were found for B2 in this work.

B3: CIgG4B1A1(G4S)1 (Fc fusion)
chain 1: GPPCPPCPAPEFLGGPSVFLFPPKPKDTLMISRTPEVTCVVVDVSQEDPEVQFNWYVDGVEVHNAKTKPREEQFNSTYRVVSVLTVLHQDWLNGKEYKCKVSNKGLPSSIEKTISKAKGQPREPQVYTLPPCQEEMTKNQVSLWCLVKGFYPSDIAVEWESNGQPENNYKTTPPVLDSDGSFFLYSRLTVDKSRWQEGNVFSCSVMHEALHNHYTQKSLSLSLGKGGGGSQVQLQESGGGLVQTGGSLRLSCAVHGRTFSNTGMGWFRQAPGNERQFVAIISPSGTSTYYADSVKGRFTISRDPAKNTVYLQMNSLKMDDTAVYYCAASYGSNWSTLRHQRRNEYDAWGQGTQVAVS
chain 2: GPPCPPCPAPEFLGGPSVFLFPPKPKDTLMISRTPEVTCVVVDVSQEDPEVQFNWYVDGVEVHNAKTKPREEQFNSTYRVVSVLTVLHQDWLNGKEYKCKVSNKGLPSSIEKTISKAKGQPREPQVCTLPPSQEEMTKNQVSLSCAVKGFYPSDIAVEWESNGQPENNYKTTPPVLDSDGSFFLVSRLTVDKSRWQEGNVFSCSVMHEALHNHYTQKSLSLSLGKGGGGSEVQLLESGGGLVQPGGSLRLSCAASGFTFGNYDMAWVRQAPGKRPEWVSSIDTGGDITHYADSVKGRFTISRDNAKNTLYLQMNSLRPEDTAVYWCATDEEYALGPNEFDYYGQGTLVTVSS
An EC50 of 3.1 nM and a Max effect of over 95% were found for B3 in this work.

B4: NIgG4B1A1(RS) (Fc fusion)
chain 1: QVQLQESGGGLVQTGGSLRLSCAVHGRTFSNTGMGWFRQAPGNERQFVAIISPSGTSTYYADSVKGRFTISRDPAKNTVYLQMNSLKMDDTAVYYCAASYGSNWSTLRHQRRNEYDAWGQGTQVAVSRSGPPCPPCPAPEFLGGPSVFLFPPKPKDTLMISRTPEVTCVVVDVSQEDPEVQFNWYVDGVEVHNAKTKPREEQFNSTYRVVSVLTVLHQDWLNGKEYKCKVSNKGLPSSIEKTISKAKGQPREPQVYTLPPCQEEMTKNQVSLWCLVKGFYPSDIAVEWESNGQPENNYKTTPPVLDSDGSFFLYSRLTVDKSRWQEGNVFSCSVMHEALHNHYTQKSLSLSLGK
chain 2: EVQLLESGGGLVQPGGSLRLSCAASGFTFGNYDMAWVRQAPGKRPEWVSSIDTGGDITHYADSVKGRFTISRDNAKNTLYLQMNSLRPEDTAVYWCATDEEYALGPNEFDYYGQGTLVTVSSRSGPPCPPCPAPEFLGGPSVFLFPPKPKDTLMISRTPEVTCVVVDVSQEDPEVQFNWYVDGVEVHNAKTKPREEQFNSTYRVVSVLTVLHQDWLNGKEYKCKVSNKGLPSSIEKTISKAKGQPREPQVCTLPPSQEEMTKNQVSLSCAVKGFYPSDIAVEWESNGQPENNYKTTPPVLDSDGSFFLVSRLTVDKSRWQEGNVFSCSVMHEALHNHYTQKSLSLSLGK
notes: same for the Fc fusions below
An EC50 of 1.9 nM and a Max effect of over 95% were found for B4 in this work.

B5: CIgG4B1A1(RS) (Fc fusion)
chain 1: GPPCPPCPAPEFLGGPSVFLFPPKPKDTLMISRTPEVTCVVVDVSQEDPEVQFNWYVDGVEVHNAKTKPREEQFNSTYRVVSVLTVLHQDWLNGKEYKCKVSNKGLPSSIEKTISKAKGQPREPQVYTLPPCQEEMTKNQVSLWCLVKGFYPSDIAVEWESNGQPENNYKTTPPVLDSDGSFFLYSRLTVDKSRWQEGNVFSCSVMHEALHNHYTQKSLSLSLGKRSQVQLQESGGGLVQTGGSLRLSCAVHGRTFSNTGMGWFRQAPGNERQFVAIISPSGTSTYYADSVKGRFTISRDPAKNTVYLQMNSLKMDDTAVYYCAASYGSNWSTLRHQRRNEYDAWGQGTQVAVS
chain 2: GPPCPPCPAPEFLGGPSVFLFPPKPKDTLMISRTPEVTCVVVDVSQEDPEVQFNWYVDGVEVHNAKTKPREEQFNSTYRVVSVLTVLHQDWLNGKEYKCKVSNKGLPSSIEKTISKAKGQPREPQVCTLPPSQEEMTKNQVSLSCAVKGFYPSDIAVEWESNGQPENNYKTTPPVLDSDGSFFLVSRLTVDKSRWQEGNVFSCSVMHEALHNHYTQKSLSLSLGKRSEVQLLESGGGLVQPGGSLRLSCAASGFTFGNYDMAWVRQAPGKRPEWVSSIDTGGDITHYADSVKGRFTISRDNAKNTLYLQMNSLRPEDTAVYWCATDEEYALGPNEFDYYGQGTLVTVSS
An EC50 of 9.8 nM and a Max effect of over 95% were found for B5 in this work.

B6: NIgG4B1A1(G4S)1 (Fc fusion)
chain 1: QVQLQESGGGLVQTGGSLRLSCAVHGRTFSNTGMGWFRQAPGNERQFVAIISPSGTSTYYADSVKGRFTISRDPAKNTVYLQMNSLKMDDTAVYYCAASYGSNWSTLRHQRRNEYDAWGQGTQVAVSGGGGSGPPCPPCPAPEFLGGPSVFLFPPKPKDTLMISRTPEVTCVVVDVSQEDPEVQFNWYVDGVEVHNAKTKPREEQFNSTYRVVSVLTVLHQDWLNGKEYKCKVSNKGLPSSIEKTISKAKGQPREPQVYTLPPCQEEMTKNQVSLWCLVKGFYPSDIAVEWESNGQPENNYKTTPPVLDSDGSFFLYSRLTVDKSRWQEGNVFSCSVMHEALHNHYTQKSLSLSLGK
chain 2: EVQLLESGGGLVQPGGSLRLSCAASGFTFGNYDMAWVRQAPGKRPEWVSSIDTGGDITHYADSVKGRFTISRDNAKNTLYLQMNSLRPEDTAVYWCATDEEYALGPNEFDYYGQGTLVTVSSGGGGSGPPCPPCPAPEFLGGPSVFLFPPKPKDTLMISRTPEVTCVVVDVSQEDPEVQFNWYVDGVEVHNAKTKPREEQFNSTYRVVSVLTVLHQDWLNGKEYKCKVSNKGLPSSIEKTISKAKGQPREPQVCTLPPSQEEMTKNQVSLSCAVKGFYPSDIAVEWESNGQPENNYKTTPPVLDSDGSFFLVSRLTVDKSRWQEGNVFSCSVMHEALHNHYTQKSLSLSLGK
An EC50 of 1.1 nM and a Max effect of over 95% were found for B6 in this work.

B7: NIgG4B1A1(G4S)3 (Fc fusion)
chain 1: QVQLQESGGGLVQTGGSLRLSCAVHGRTFSNTGMGWFRQAPGNERQFVAIISPSGTSTYYADSVKGRFTISRDPAKNTVYLQMNSLKMDDTAVYYCAASYGSNWSTLRHQRRNEYDAWGQGTQVAVSGGGGSGGGGSGGGGSGPPCPPCPAPEFLGGPSVFLFPPKPKDTLMISRTPEVTCVVVDVSQEDPEVQFNWYVDGVEVHNAKTKPREEQFNSTYRVVSVLTVLHQDWLNGKEYKCKVSNKGLPSSIEKTISKAKGQPREPQVYTLPPCQEEMTKNQVSLWCLVKGFYPSDIAVEWESNGQPENNYKTTPPVLDSDGSFFLYSRLTVDKSRWQEGNVFSCSVMHEALHNHYTQKSLSLSLGK
chain 2: EVQLLESGGGLVQPGGSLRLSCAASGFTFGNYDMAWVRQAPGKRPEWVSSIDTGGDITHYADSVKGRFTISRDNAKNTLYLQMNSLRPEDTAVYWCATDEEYALGPNEFDYYGQGTLVTVSSGGGGSGGGGSGGGGSGPPCPPCPAPEFLGGPSVFLFPPKPKDTLMISRTPEVTCVVVDVSQEDPEVQFNWYVDGVEVHNAKTKPREEQFNSTYRVVSVLTVLHQDWLNGKEYKCKVSNKGLPSSIEKTISKAKGQPREPQVCTLPPSQEEMTKNQVSLSCAVKGFYPSDIAVEWESNGQPENNYKTTPPVLDSDGSFFLVSRLTVDKSRWQEGNVFSCSVMHEALHNHYTQKSLSLSLGK
An EC50 of 0.9 nM and a Max effect of over 95% were found for B7 in this work.
